Data as given in paper PMC9296572, “An Unusual Oxidative Rearrangement Catalyzed by a Divergent Member of the 2‐Oxoglutarate‐Dependent Dioxygenase Superfamily during Biosynthesis of Dehydrofosmidomycin” (Angewandte Chemie (International Ed. in English), 2022).

System: C[N+](C)(C)CCP(=O)([O-])O
Test: O2 consumption, Clark-type electrode, initial rates in first minute
Assay type: biochemical, Streptomyces lavendulae
Settings: apparent; co-substrates 2-oxoglutarate and O2, Fe(II); two-turnover enzyme, value assumed to pertain to the desaturation to TMAVP

## DfmD (Streptomyces lavendulae)
  Km: 160 µM
  kcat: 0.04 s⁻¹
